In PMC3315512, “The Lid Domain of Caenorhabditis elegans Hsc70 Influences ATP Turnover, Cofactor Binding and Protein Folding Activity” (PLoS ONE, 2012):

Legend:
[1] = molecular target: the molecule itself; test: AUC; sedimentation velocity with fluorescence detection, 300 nM *DNJ-13 alone, 20°C, 42 000 rpm; whole boundary fitting and C(s) (UltraScan)
[2] = molecular target: T1, His6-CeHsc70 (Caenorhabditis elegans Hsc70, HSP-1) (C. elegans, UniProt P09446 1-640); test: AUC; competition: 15 µM BAG-1 added to 300 nM *DNJ-13, 3 µM CeHsc70 and 4 mM ATP; sedimentation velocity with fluorescence detection; dc/dt analysis; conditions: both partners purified
T1 construct: CeHsc70 (HSP-1), the sole Hsc70-like protein of C. elegans; full-length protein (the lid is said to end at amino acid 640); pET28a-based plasmid; also called nematodal Hsc70; source: E. coli BL21-CodonPlus (DE3)-RIL, purified (HisTrap, ResourceQ, Superdex 75)
T1 sequence (P09446 whole entry): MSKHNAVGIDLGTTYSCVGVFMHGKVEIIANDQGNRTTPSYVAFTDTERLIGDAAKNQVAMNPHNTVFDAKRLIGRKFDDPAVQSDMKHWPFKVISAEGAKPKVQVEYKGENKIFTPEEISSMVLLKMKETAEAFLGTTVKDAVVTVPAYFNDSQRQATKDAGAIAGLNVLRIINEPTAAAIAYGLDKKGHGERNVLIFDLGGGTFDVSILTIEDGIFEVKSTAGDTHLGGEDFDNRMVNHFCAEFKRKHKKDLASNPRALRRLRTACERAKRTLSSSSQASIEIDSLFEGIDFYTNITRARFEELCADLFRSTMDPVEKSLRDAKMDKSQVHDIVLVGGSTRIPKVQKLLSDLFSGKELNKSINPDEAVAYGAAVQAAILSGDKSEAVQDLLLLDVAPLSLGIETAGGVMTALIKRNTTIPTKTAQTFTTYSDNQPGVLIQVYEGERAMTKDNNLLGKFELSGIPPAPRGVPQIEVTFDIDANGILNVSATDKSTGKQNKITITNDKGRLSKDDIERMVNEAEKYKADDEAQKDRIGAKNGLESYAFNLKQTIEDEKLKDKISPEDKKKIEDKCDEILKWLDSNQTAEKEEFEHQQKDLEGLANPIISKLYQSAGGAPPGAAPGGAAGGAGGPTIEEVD

[3] = molecular target: T1, His6-CeHsc70 (Caenorhabditis elegans …); test: cell-based or functional assay

B1: *DNJ-13 (C. elegans DNJ-13 labelled with carboxyfluorescein) (natural protein)
chain: not shown
modifications: 5-(and-6)-carboxyfluorescein succinimidylester, preferential labeling at the N-terminal amine group (labelling efficiency 1.2)
notes: DNJ-13, Hsp40-like J-domain protein of C. elegans (Sis1 / DNAJB homolog); also called fluorescently labeled DNJ-13; source: E. coli BL21-CodonPlus (DE3)-RIL, purified (HisTrap, ResourceS, Superdex 75), then labelled
stoichiometry N [1]: 2

B2: BAG-1 (C. elegans, unlabelled) (natural protein, UniProt O44739 1-210, looked up)
chain: MKVNVSCSSVQTTIDILEENQGEDESILTLGQLRDRIATDNDVDVETMKLLHRGKFLQGADDVSLSTLNFKENDKIIVMGGKNALVDDAGFKMLMQYEKHNLSNLQKAYDLNLRDVADLERGFLEKPKQVEMGKKLEKKVKYFNEEAERHLETLDGMNIITETTPENQAKRNREKRKTLVNGIQTLLNQNDALLRRLQEYQSVLNGDIPE
notes: BAG-1, nucleotide exchange factor of C. elegans, full-length, cloned from a C. elegans cDNA preparation; a His tag is surmised from the HisTrap column; also called nematodal BAG-1; source: E. coli BL21-CodonPlus (DE3)-RIL, purified (HisTrap, ResourceQ, Superdex 75)
binding result [2]: binds

B3: DNJ-13 (C. elegans, unlabelled) (natural protein)
chain: not shown
apparent KD of DNJ-13 from titration of the steady-state ATPase activity of 1 µM CeHsc70 in the presence of 2 µM BAG-1, standard buffer, 25°C [3]: 6.8 µM
